Experimental findings from patent US20230399395A1 (published 2023) are described below.

A word on the EC50: it is the concentration at which the effect is half-maximal. Low values mean an effect from little substance, high ones a need for much substance. The term Kd denotes the constant that tells how readily two partners part at equilibrium. The low end stands for a tighter complex, the high end for a looser complex. In general, IC50 refers to the concentration that gives 50% inhibition. A low value points to inhibition by little substance.

Assay [1] deals with T1, human IL5 (human, UniProt P05113 20-134, biotinylated (IL5-biotin) in Examples 2, 5, 6, 9 and 11; site not stated). As to the kind of experiment: ELISA.
In assay [2] the target is T1, human IL5. Nature of the assay: BLI. For orientation: BLI is a label-free optical method that tracks binding on a fibre tip over time.
Assay [3] addresses T1, human IL5. As to the kind of experiment: flow cytometry blocking IL5/IL5R. Background: In flow cytometry, cells or beads pass a laser one at a time.
Assay [4] deals with T1, human IL5. Nature of the assay: flow.

Positions count from the first letter of the chain named.

B1: Nb25 (VHH)
VHH: QVQLQESGGGSVQAGGSLRLSCAASEYTYSRYCMGWFRQVPGKEREGVATIDSDGSTSYADSVKGRFTISKDNAKNTLYLQMNSLKPEDTAMYYCAARYFYIATTGLRPCGEYEYNYWGQGTQVTVSS
In the case of B1, a half-maximal effect in assay [1] (EC50) was put at 0.0427 µg/mL. The Kd in assay [2] came out at 0.491 nM. For the same molecule, the IC50 in assay [3] was found to be 2.62 µg/mL.

B2: Nb92 (VHH)
VHH: QVQLQESGGGLVQPGGSLRLSCAASGFTFSNYYMSWVRQAPGKGLEWVSSISSDGSNTYYEDSVKGRFTISRDNANNTLYLQMNSLKSEDTALYHCATDLYDDSWYDHWGQGTQVTVSS
As for B2, the half-maximal effective concentration (EC50) in assay [1] turned out to be 0.0432 µg/mL. The molecule further yielded a Kd in assay [2] of 0.385 nM. The IC50 in assay [3] came out at 2.29 µg/mL.

B3: Nb66 (VHH)
VHH: QVQLQESGGGSVQAGGSLRLSCAASGYTVSSNMGWFRQAPGKEREGVAAIYPDGATYYADSVKGRFTISQDNAENTVYLQMNSLKPEDTAMYYCAADLAFNGLGTLALHGYWGQGTQVTVSS
Consider B3, for which the EC50 in assay [1] was 0.0327 µg/mL. Moreover, the dissociation constant (Kd) in assay [2] is < 0.001 nM. Moreover, half-maximal inhibition in assay [3] (IC50) required 1.17 µg/mL.

B4: HuNb66-Fc (antibody, V domains shown)
VH: B3 VHH with Q1E, S11L, A14P, Q70R, A73S, V77L, K85R, P86A, Q117L
As for B4, in assay [4], half-maximal inhibition (IC50) required 5.73 µg/mL.

B5: Nb21 (VHH)
VHH: QVQLQESGGGSAQAGGSLKLSCVVSGYPYSGDYCMGWFRQAPGKEREGVAAFYTGGGSTYYADSVKGRFTTSQDNATSTFHLQMNSLKPEDTATYYCAADPWSVYGGSCGVKDPNPKAFNYWGQGTQVTVSS
Molecule B5 gave a 50% effective concentration (EC50) in assay [1] of 0.0357 µg/mL. Also, the Kd in assay [2] stood at 0.629 nM. The molecule also returned a 50% inhibitory concentration (IC50) in assay [3] of 1.57 µg/mL.

B6: HuNb21-Fc (antibody, V domains shown)
VH: EVQLQESGGGLVQPGGSLRLSCAASGYPYSGDYCMGWFRQAPGKEREGVAAFYTGGGSTYYADSVKGRFTISRDNSKNTLYLQMNSLRAEDTAVYYCAADPWSVYGGSCGVKDPNPKAFNYWGQGTLVTVSS
In assay [4], B6 displayed an IC50 of 5.96 µg/mL.
